B1: CPEB3 Ribozyme (parent)
chain: GGGGGCCACAGCAGAAGCGUUCACGUCGCGGCCCCUGUCAGAUUCUGGUGAAUCUGCGAAUUCUGCUGU

Variants of: B1
Assay: self-cleavage, relative activity (ratio to wild type); higher = more cleavage; co-transcriptional

Row | Variant | self-cleavage
1 | G25U C54G | 0.115
2 | G25U C54A | 0.125
3 | G25U C54U | 0.121
4 | U26A C32A | 0.422
5 | U26A C32U | 0.869
6 | U26A C32G | 0.231
7 | U26A U53A | 0.806
8 | U26A U53C | 0.724
9 | U26A U53G | 0.647
10 | U26G G47C | 0.965
11 | G25U C45A | 0.181
12 | G25U C45U | 0.156
13 | U26C G31A | 0.838
14 | U26C G31C | 0.193
15 | U26C G31U | 0.658
16 | G25U G47C | 0.11
17 | U26G G58A | 0.557
18 | U26G G58U | 0.87
19 | U26A G68A | 0.941
20 | U26A A52U | 0.816
21 | U26A A52C | 0.9
22 | U26A A52G | 0.825
23 | G25U G65C | 0.105
24 | G25C U69C | 0.333

Row | Variant | self-cleavage
25 | U26A U64A | 0.628
26 | U26A U64G | 0.719
27 | U26C A42C | 1.01
28 | U26C A42U | 0.964
29 | U26A G31A | 0.511
30 | U26C A60U | 0.337
31 | U26C A60C | 0.233
32 | U26A A60G | 0.478
33 | U26A A60U | 0.377
34 | G25U C27G | 0.16
35 | G25U C66U | 0.121
36 | U26C A52C | 0.995
37 | U26C A52U | 0.989
38 | U26C A52G | 1.01
39 | G25U U26C | 0.631
40 | G25U U26A | 0.273
41 | U26A U67C | 0.868
42 | U26A U67G | 0.858
43 | U26C U38C | 0.925
44 | U26C U38A | 0.837
45 | U26C U38G | 0.188
46 | U26C C32G | 0.365
47 | G25U U55G | 0.146
48 | G25U U55A | 0.154

Row | Variant | self-cleavage
49 | G25U U38G | 0.205
50 | U26G C63U | 0.893
51 | U26G C63A | 0.581
52 | U26C C45U | 0.953
53 | U26G A42U | 0.828
54 | U26G A42C | 0.86
55 | U26C G48C | 0.988
56 | U26C G48A | 0.982
57 | G25U G48C | 0.215
58 | G25U G48A | 0.176
59 | G25U G48U | 0.155
60 | U26C U69A | 1.01
61 | U26C U69C | 1.06
62 | U26C U61G | 0.693
63 | U26C U61C | 0.617
64 | U26C U61A | 0.874
65 | G25U U53G | 0.226
66 | G25U U53C | 0.112
67 | G25U U53A | 0.166
68 | G25C U49A | 0.14
69 | G25C U49G | 0.11
70 | U26A U61C | 0.403
71 | U26A U61G | 0.559
72 | U26G | 0.924

Row | Variant | self-cleavage
73 | U26C | 0.993
74 | U26A | 0.907
75 | U26C U36A | 0.153
76 | U26C U36C | 0.88
77 | U26G C54G | 0.694
78 | U26G C54A | 0.708
79 | U26G C54U | 0.931
80 | U26A G30A | 0.36
81 | G25U U69C | 0.263
82 | G25U U69G | 0.183
83 | U26A C34U | 0.93
84 | U26A C34G | 0.501
85 | G25U U61G | 0.149
86 | U26A G28A | 0.216
87 | U26A G28C | 0.114
88 | U26G G30U | 0.164
89 | U26G G30C | 0.284
90 | G25U U49G | 0.189
91 | G25U U49C | 0.157
92 | U26G C57A | 0.339
93 | U26G C57G | 0.172
94 | U26G C35G | 0.241
95 | U26G C35A | 0.184
96 | U26C C29U | 0.135

Row | Variant | self-cleavage
97 | U26C C29A | 0.414
98 | U26C C29G | 0.345
99 | G25C U55A | 0.107
100 | G25C U55C | 0.107
101 | G25C U55G | 0.174
102 | G25U G30A | 0.16
103 | G25U G30C | 0.14
104 | G25U U64C | 0.103
105 | G25U U64A | 0.132
106 | U26A C63A | 0.51
107 | U26C C63G | 0.599
108 | U26C C63U | 1
109 | U26C C63A | 0.614
110 | U26C U64C | 0.688
111 | U26C U64A | 0.768
112 | U26C U64G | 0.752
113 | G25U A51G | 0.168
114 | G25U A51U | 0.152
115 | G25U A51C | 0.212
116 | U26C G50C | 1
117 | U26C G50U | 0.956
118 | U26G A60U | 0.393
119 | G25U C32G | 0.158
120 | U26C U67C | 0.968

Row | Variant | self-cleavage
121 | U26C U67A | 1.01
122 | U26C U67G | 0.945
123 | U26G C66G | 0.693
124 | U26G A40G | 0.75
125 | U26G A40U | 0.602
126 | U26G A40C | 0.395
127 | G25U C35G | 0.165
128 | G25U C35A | 0.155
129 | U26A C35A | 0.228
130 | U26A C35U | 0.644
131 | G25U G58C | 0.107
132 | G25U G58A | 0.214
133 | U26G G41C | 0.561
134 | U26G G41A | 0.539
135 | U26A G47U | 0.932
136 | U26A G47A | 0.88
137 | U26G C39U | 0.731
138 | U26G C39G | 0.756
139 | U26G C39A | 0.406
140 | U26C A51G | 0.928
141 | U26C A51U | 0.982
142 | U26C A51C | 0.972
143 | G25U G68C | 0.225
144 | G25U G68U | 0.159

Row | Variant | self-cleavage
145 | U26C U46G | 0.893
146 | U26C U46A | 1.02
147 | U26C U46C | 0.95
148 | U26G G56C | 0.356
149 | U26G G56U | 0.814
150 | U26G G56A | 0.729
151 | G25C U53G | 0.106
152 | G25C U53C | 0.0815
153 | U26C U55C | 0.833
154 | U26C U55A | 0.821
155 | U26C U43G | 0.735
156 | U26A U43C | 0.802
157 | U26A U43G | 0.707
158 | U26C G65C | 0.547
159 | U26C G65A | 0.713
160 | G25U U62C | 0.193
161 | U26A U69C | 1.04
162 | U26A U69G | 0.977
163 | U26A G50C | 0.95
164 | U26A G50A | 0.871
165 | G25U C39G | 0.124
166 | G25U C39U | 0.151
167 | U26A A59U | 0.404
